molecular target: TSLP, Q969D9; test: Kd (SPR)

| Binder | Kd [nM] |
| --- | --- |
| unnamed (protein) chain 1: QMQLVESGGGVVQPGRSLRLSCAASGFTFRTYGMHWVRQAPGKGLEWVAVIWYDGSNKHYADSVKGRFTITRDNSKNTLNLQMNSLRAEDTAVYYCAREPPLFYSSWSLDNWGQGTMVTVSS chain 2: SYVLTQPPSVSVAPGQTARITCGGNNLGSKSVHWYQQKPGQAPVLVVYDDSDRPSWIPERFSGSNSGNTATLTISRGEAGDEADYYCQVWDSSSDHVVFGGGTKLTVL | 0.203 |
| unnamed (protein) chain 1: QMQLVESGGGVVQPGRSLRLSCAASGFTFRTYGMHWVRQAPGKGLEWVAVIWYDGSNKHYADSVKGRFTITRDNSKNTLNLQMNSLRAEDTAVYYCARAPRYDYYLEAFDVWGQGTMVTVSS chain 2: SYVLTQPPSVSVAPGQTARITCGGNNLGSKSVHWYQQKPGQAPVLVVYDDSDRPSWIPERFSGSNSGNTATLTISRGEAGDEADYYCQVWDSSSDHVVFGGGTKLTVL | 238 |
| unnamed (protein) chain 1: QMQLVESGGGVVQPGRSLRLSCAASGFTFRTYGMHWVRQAPGKGLEWVAVIWYDGSNKHYADSVKGRFTITRDNSKNTLNLQMNSLRAEDTAVYYCANLKDSRYSGSYYDYWGQGTMVTVSS chain 2: SYVLTQPPSVSVAPGQTARITCGGNNLGSKSVHWYQQKPGQAPVLVVYDDSDRPSWIPERFSGSNSGNTATLTISRGEAGDEADYYCQVWDSSSDHVVFGGGTKLTVL | 523 |
| unnamed (protein) chain 1: QMQLVESGGGVVQPGRSLRLSCAASGFTFRTYGMHWVRQAPGKGLEWVAVIWYDGSNKHYADSVKGRFTITRDNSKNTLNLQMNSLRAEDTAVYYCARDRFDVASGSSFDFWGQGTMVTVSS chain 2: SYVLTQPPSVSVAPGQTARITCGGNNLGSKSVHWYQQKPGQAPVLVVYDDSDRPSWIPERFSGSNSGNTATLTISRGEAGDEADYYCQVWDSSSDHVVFGGGTKLTVL | 126 |
| unnamed (protein) chain 1: QMQLVESGGGVVQPGRSLRLSCAASGFTFRTYGMHWVRQAPGKGLEWVAVIWYDGSNKHYADSVKGRFTITRDNSKNTLNLQMNSLRAEDTAVYYCARAPRYDWLYEAFDVWGQGTMVTVSS chain 2: SYVLTQPPSVSVAPGQTARITCGGNNLGSKSVHWYQQKPGQAPVLVVYDDSDRPSWIPERFSGSNSGNTATLTISRGEAGDEADYYCQVWDSSSDHVVFGGGTKLTVL | 83 |
| unnamed (protein) chain 1: QMQLVESGGGVVQPGRSLRLSCAASGFTFRTYGMHWVRQAPGKGLEWVAVIWYDGSNKHYADSVKGRFTITRDNSKNTLNLQMNSLRAEDTAVYYCARSPRYDWYWEAFDVWGQGTMVTVSS chain 2: SYVLTQPPSVSVAPGQTARITCGGNNLGSKSVHWYQQKPGQAPVLVVYDDSDRPSWIPERFSGSNSGNTATLTISRGEAGDEADYYCQVWDSSSDHVVFGGGTKLTVL | 240 |
| unnamed (protein) chain 1: QMQLVESGGGVVQPGRSLRLSCAASGFTFRTYGMHWVRQAPGKGLEWVAVIWYDGSNKHYADSVKGRFTITRDNSKNTLNLQMNSLRAEDTAVYYCARAPRYDDRWEAFDVWGQGTMVTVSS chain 2: SYVLTQPPSVSVAPGQTARITCGGNNLGSKSVHWYQQKPGQAPVLVVYDDSDRPSWIPERFSGSNSGNTATLTISRGEAGDEADYYCQVWDSSSDHVVFGGGTKLTVL | 193 |
| unnamed (protein) chain 1: QMQLVESGGGVVQPGRSLRLSCAASGFTFRTYGMHWVRQAPGKGLEWVAVIWYDGSNKHYADSVKGRFTITRDNSKNTLNLQMNSLRAEDTAVYYCVRGSITWPTEYYLDYWGQGTMVTVSS chain 2: SYVLTQPPSVSVAPGQTARITCGGNNLGSKSVHWYQQKPGQAPVLVVYDDSDRPSWIPERFSGSNSGNTATLTISRGEAGDEADYYCQVWDSSSDHVVFGGGTKLTVL | 426 |
| unnamed (protein) chain 1: QMQLVESGGGVVQPGRSLRLSCAASGFTFRTYGMHWVRQAPGKGLEWVAVIWYDGSNKHYADSVKGRFTITRDNSKNTLNLQMNSLRAEDTAVYYCARSPRYYWYYEAFDVWGQGTMVTVSS chain 2: SYVLTQPPSVSVAPGQTARITCGGNNLGSKSVHWYQQKPGQAPVLVVYDDSDRPSWIPERFSGSNSGNTATLTISRGEAGDEADYYCQVWDSSSDHVVFGGGTKLTVL | 81.9 |
| unnamed (protein) chain 1: QMQLVESGGGVVQPGRSLRLSCAASGFTFRTYGMHWVRQAPGKGLEWVAVIWYDGSNKHYADSVKGRFTITRDNSKNTLNLQMNSLRAEDTAVYYCARDESTGDYYYYMDVWGQGTMVTVSS chain 2: SYVLTQPPSVSVAPGQTARITCGGNNLGSKSVHWYQQKPGQAPVLVVYDDSDRPSWIPERFSGSNSGNTATLTISRGEAGDEADYYCQVWDSSSDHVVFGGGTKLTVL | 229 |
| unnamed (protein) chain 1: QMQLVESGGGVVQPGRSLRLSCAASGFTFRTYGMHWVRQAPGKGLEWVAVIWYDGSNKHYADSVKGRFTITRDNSKNTLNLQMNSLRAEDTAVYYCARPPYYYGTTYYFDYWGQGTMVTVSS chain 2: SYVLTQPPSVSVAPGQTARITCGGNNLGSKSVHWYQQKPGQAPVLVVYDDSDRPSWIPERFSGSNSGNTATLTISRGEAGDEADYYCQVWDSSSDHVVFGGGTKLTVL | 300 |
| unnamed (protein) chain 1: QMQLVESGGGVVQPGRSLRLSCAASGFTFRTYGMHWVRQAPGKGLEWVAVIWYDGSNKHYADSVKGRFTITRDNSKNTLNLQMNSLRAEDTAVYYCARAPRYDTYYEAFDVWGQGTMVTVSS chain 2: SYVLTQPPSVSVAPGQTARITCGGNNLGSKSVHWYQQKPGQAPVLVVYDDSDRPSWIPERFSGSNSGNTATLTISRGEAGDEADYYCQVWDSSSDHVVFGGGTKLTVL | 83.9 |
| unnamed (protein) chain 1: QMQLVESGGGVVQPGRSLRLSCAASGFTFRTYGMHWVRQAPGKGLEWVAVIWYDGSNKHYADSVKGRFTITRDNSKNTLNLQMNSLRAEDTAVYYCARSPRYDYYWEAFDVWGQGTMVTVSS chain 2: SYVLTQPPSVSVAPGQTARITCGGNNLGSKSVHWYQQKPGQAPVLVVYDDSDRPSWIPERFSGSNSGNTATLTISRGEAGDEADYYCQVWDSSSDHVVFGGGTKLTVL | 290 |
| unnamed (protein) chain 1: QMQLVESGGGVVQPGRSLRLSCAASGFTFRTYGMHWVRQAPGKGLEWVAVIWYDGSNKHYADSVKGRFTITRDNSKNTLNLQMNSLRAEDTAVYYCARGPFSRYDYFAMDNWGQGTMVTVSS chain 2: SYVLTQPPSVSVAPGQTARITCGGNNLGSKSVHWYQQKPGQAPVLVVYDDSDRPSWIPERFSGSNSGNTATLTISRGEAGDEADYYCQVWDSSSDHVVFGGGTKLTVL | 557 |
| unnamed (protein) chain 1: QMQLVESGGGVVQPGRSLRLSCAASGFTFRTYGMHWVRQAPGKGLEWVAVIWYDGSNKHYADSVKGRFTITRDNSKNTLNLQMNSLRAEDTAVYYCARGPMALLYYRGFDYWGQGTMVTVSS chain 2: SYVLTQPPSVSVAPGQTARITCGGNNLGSKSVHWYQQKPGQAPVLVVYDDSDRPSWIPERFSGSNSGNTATLTISRGEAGDEADYYCQVWDSSSDHVVFGGGTKLTVL | 183 |
| unnamed (protein) chain 1: QMQLVESGGGVVQPGRSLRLSCAASGFTFRTYGMHWVRQAPGKGLEWVAVIWYDGSNKHYADSVKGRFTITRDNSKNTLNLQMNSLRAEDTAVYYCNAAIRTTVRTSAQEYWGQGTMVTVSS chain 2: SYVLTQPPSVSVAPGQTARITCGGNNLGSKSVHWYQQKPGQAPVLVVYDDSDRPSWIPERFSGSNSGNTATLTISRGEAGDEADYYCQVWDSSSDHVVFGGGTKLTVL | 103 |
| unnamed (protein) chain 1: QMQLVESGGGVVQPGRSLRLSCAASGFTFRTYGMHWVRQAPGKGLEWVAVIWYDGSNKHYADSVKGRFTITRDNSKNTLNLQMNSLRAEDTAVYYCTRDGGLLFAYYAMDYWGQGTMVTVSS chain 2: SYVLTQPPSVSVAPGQTARITCGGNNLGSKSVHWYQQKPGQAPVLVVYDDSDRPSWIPERFSGSNSGNTATLTISRGEAGDEADYYCQVWDSSSDHVVFGGGTKLTVL | 110 |

molecular target: TNFRSF9, Q07011; test: Kd (SPR)

| Binder | Kd [nM] |
| --- | --- |
| unnamed (protein) chain 1: EVQLVQSGAEVKKPGESLRISCKGSGYTFSSYWISWVRQMPGKGLEWMGKIYPGDSYTNYSPSFQGQVTISADKSISTAYLQWSSLKASDTAMYYCARGYGIFDYWGQGTLVTVSS chain 2: SYELTQPPSVSVSPGQTASITCSGDNIGDQYAHWYQQKPGQSPVLVIYQDKNRPSGIPERFSGSNSGNTATLTISGTQAMDEADYYCATYTGFGSLAVFGGGTKLTVL | 58.6 |
| unnamed (protein) chain 1: EVQLVQSGAEVKKPGESLRISCKGSGYTFSNYWISWVRQMPGKGLEWMGKIYPGDSYTNYSPSFQGQVTISADKSISTAYLQWSSLKASDTAMYYCARGEGLFDYWGQGTLVTVSS chain 2: SYELTQPPSVSVSPGQTASITCSGDNIGDQYAHWYQQKPGQSPVLVIYQDKNRPSGIPERFSGSNSGNTATLTISGTQAMDEADYYCATYTGFGSLAVFGGGTKLTVL | 51 |
